Laboratory results: US20240239894A1, “THERAPEUTIC BINDING MOLECULES” (MedImmune Limited, priority 2020, published 2024)
Numbering of substitutions follows the chain as printed.

T1: MurineB7-H4 (Mus musculus, UniProt Q7TSP5)
T1 construct: Mouse B7H4 ECD; FLAG (C); 10His (C); made in house
T1 sequence (Q7TSP5 25-257 limits assumed): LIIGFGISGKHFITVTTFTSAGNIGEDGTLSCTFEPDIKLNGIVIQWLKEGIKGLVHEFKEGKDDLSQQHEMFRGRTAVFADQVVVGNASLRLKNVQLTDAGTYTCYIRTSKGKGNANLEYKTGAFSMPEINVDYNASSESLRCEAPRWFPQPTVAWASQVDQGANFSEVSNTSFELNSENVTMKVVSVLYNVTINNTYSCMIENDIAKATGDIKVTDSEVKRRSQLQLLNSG

T2: HumanB7-H4 (Homo sapiens, UniProt Q7Z7D3)
T2 construct: Human B7H4 ECD; FLAG; 10His; made in house
T2 sequence (Q7Z7D3 25-259 limits assumed): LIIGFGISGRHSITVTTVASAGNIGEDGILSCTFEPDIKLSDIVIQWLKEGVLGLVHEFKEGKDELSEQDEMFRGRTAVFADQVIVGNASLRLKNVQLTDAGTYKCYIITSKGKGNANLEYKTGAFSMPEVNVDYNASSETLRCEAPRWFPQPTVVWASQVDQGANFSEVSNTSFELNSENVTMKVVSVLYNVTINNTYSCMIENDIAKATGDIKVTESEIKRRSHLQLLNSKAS

T3: monomeric B7-H4-FLAG (Homo sapiens, UniProt Q7Z7D3)
T3 construct: 10His; made in house
T3 sequence (Q7Z7D3 25-259 limits assumed): T2 sequence (Q7Z7D3 25-259 limits assumed)

T4: recombinant mouse B7-H4 (Mus musculus, UniProt Q7TSP5)
T4 sequence (Q7TSP5 25-257): T1 sequence (Q7TSP5 25-257 limits assumed)

B1: ZY0EP0-C07: anti-B7-H4 antibody clone, VH SEQ ID NO: 39, VL SEQ ID NO: 40 (antibody, V domains shown)
VH: QVQLVESGGVLVKPGGSLRLSCAASGFTLSDYYMSWIRQAPGMGLEWVSYISSSGSTIYYTDSVKGRFTISRDSAKNSLYLQMNSLRAEDTAVYYCARDGVGFDYWGQGTLVTVSS
VL: EIVLTQSPGTLSLFPGERATLSCRASQSVSSSYLAWYQQKPGQSPRLLIYAASSRATGIPDRFSGSGSGTDFTLTISRLEPEDFAVYYCQQYGSSPLYTFGQGTKLEIK
B2: ZY0EQD-E02: anti-B7-H4 antibody clone, VH SEQ ID NO: 33, VL SEQ ID NO: 34 (antibody, V domains shown)
VH: QVQLQQWGAGLLKPSETLSLTCAVYGGSFSGYYWNWIRQPPGKGLEWIGEINHSGSTSYNPSLKSRVTISVDTSKNQFSLKLSSVTAADTAVYYCARVLYNWNVDSWGQGTLVTVSS
VL: DIQMTQSPSSLSASVGDRVTITCRASQDIRNDVGWYQQKPGKAPKRLIYAASRLQSGVPSRFSGSGSGTEFTLTISSLQPEDFATYYCLQHNSYPRTFGQGTKVEIK
B3: ZY0EPQ-E02: anti-B7-H4 antibody clone, VH SEQ ID NO: 31, VL SEQ ID NO: 32 (antibody, V domains shown)
VH: B2 VH with S58N, S70L, V98N, V104L
VL: B2 VL with D28G, V33L, K42R, A50V, R53S
B4: ZY0EOB-F05: anti-B7-H4 antibody clone, VH SEQ ID NO: 35, VL SEQ ID NO: 36 (antibody, V domains shown)
VH: QVQLQESGPGLVKPSQTLSLTCTVSDGSISSGGYYWSWIRQHPGKGLEWIGNIYYSGSTYYNPSLKSRVTISVDTSKNQFSLKLNSVTAADTAVYYCATEKALATVTPSGYENYYTVDVWGQGTTVTVSS
VL: DIQLTQSPSFLSASVGDRVTITCWASQGISSYLAWYQQKPGKAPKLLIYAASTLQSGVPSRFSGSGSGTEFTLTISSLQPEDFATYYCQHLNSYPLTFGGGTKVEIK
B5: ZY0E05-E07: anti-B7-H4 antibody clone, VH SEQ ID NO: 37, VL SEQ ID NO: 38 (antibody, V domains shown)
VH: B4 VH with D26G, N85S, T99R, T105S, T107I, T116V
VL: B4 VL with D17G, S30A, S31G
B6: E02-INT Fab: antigen binding fragment of anti-B7-H4 antibody E02-INT (antibody, V domains shown)
VH: B2 VH with T21A, A23T
VL: B2 VL

target: T1, MurineB7-H4; assay: ForteBio Octet affinity; format: binding, murine; details: hIgG1 (n = 1)

| Molecule | kdis [s⁻¹] | kon [M⁻¹ s⁻¹] |
| --- | --- | --- |
| B1 | 0.000551 | 60200 |
| B2 | 0.213 | 341000 |
| B3 | 0.0498 | 100000 |
| B4 | 0.000493 | 24900 |
| B5 | 0.000415 | 17900 |

same assay, conditions: hIgG1-TM (n = 4-7)

| Molecule | kdis [s⁻¹] | kon [M⁻¹ s⁻¹] |
| --- | --- | --- |
| B1 | 0.000524 | 43000 |
| B2 | 0.126 | 203000 |
| B3 | 0.0304 | 76700 |
| B4 | 0.000476 | 18700 |
| B5 | 0.000361 | 12100 |

target: T2, HumanB7-H4; assay: ForteBio Octet affinity; format: binding; details: hIgG1 (n = 1)

| Molecule | kdis [s⁻¹] | kon [M⁻¹ s⁻¹] |
| --- | --- | --- |
| B1 | 0.000363 | 48800 |
| B2 | 0.00321 | 216000 |
| B3 | 0.00208 | 85900 |
| B4 | 0.000362 | 31000 |
| B5 | 0.000318 | 21700 |

same assay, conditions: hIgG1-TM (n = 4-7)

| Molecule | kdis [s⁻¹] | kon [M⁻¹ s⁻¹] |
| --- | --- | --- |
| B1 | 0.000397 | 41600 |
| B2 | 0.00278 | 193000 |
| B3 | 0.00182 | 70900 |
| B4 | 0.000355 | 26500 |
| B5 | 0.000338 | 17100 |

system: B7-H4 from human (including a splice variant), cynomolgus macaque, mouse and rat; assay: Clone ZY0EQD_E02 specificity ELISA; format: binding; details: Maia format mAbs

| Molecule | binding profile to B7-H4 antigens |
| --- | --- |
| B2 | binding to human, cynomolgus, mouse and rat B7-H4 |

target: T3, monomeric B7-H4-FLAG; assay: HTRF epitope binning; format: binding; details: not given
Protocol: Epitope binning was performed in an HTRF assay format using the exemplary antibodies (IgG1-TM) conjugated with DyLight-649 binding to the monomeric B7-H4-FLAG LCD with detection with europium conjugated anti-FLAG antibody.
Bin 1 was defined with the ZY0EPQ-E02, ZY0EQD-E02 and ZY0E05-E07 antibodies fully inhibiting each other, and only partial inhibiting ZY0EP0-C07. Bin 2 was defined with the ZY0EOB-F05 antibody fully competing with all antibodies and all antibodies fully competing with it. Bin 3 was defined with ZY0EP0-C07 partially competing with antibodies ZY0EPQ-E02, ZY0EQD-E02 and ZY0E05-E07 (Bin 1).

| Molecule | Epitope Bin |
| --- | --- |
| B1 | Bin 3 |

same assay, conditions: listed as ZY0EPO-C07

| Molecule | Epitope Bin |
| --- | --- |
| B1 | 3 |

target: B7-H4-SV (splice variant); assay: ForteBio Octet affinity; details: hIgG1 (n = 1)

| Molecule | KD (nM) | kdis [s⁻¹] | kon [M⁻¹ s⁻¹] |
| --- | --- | --- | --- |
| B1 | No Binding |  |  |
| B2 |  | 0.00349 | 4190 |
| B3 |  | 0.00252 | 2460 |
| B4 |  | 0.000598 | 4710 |
| B5 |  | 0.000528 | 2910 |

same assay, conditions: hIgG1-TM (n = 4-7)

| Molecule | KD (nM) | kdis [s⁻¹] | kon [M⁻¹ s⁻¹] |
| --- | --- | --- | --- |
| B1 | No Binding |  |  |
| B2 |  | 0.00269 | 3360 |
| B3 |  | 0.00229 | 1380 |
| B4 |  | 0.000584 | 3350 |
| B5 |  | 0.000499 | 1890 |

same assay, conditions: summary Table 14

| Molecule | Octet KD (nM) |
| --- | --- |
| B1 | No Binding |

system: SKBR3, A549, OVCAR4, CHO and HEK cells; assay: On-cell western, panel of cell types; format: cell-based; details: compared with control antibodies (lanes E, U, R, S)
Protocol: (§1) The on-cell western method was developed and used to run 5 exemplary antibody clones with the following cells: SKBR3, A549, OVCAR4 (all minus transfections with B7-H4 vector), CHO and HEK cells (plus and minus transfection with full length B7-H4 vector).
(§2) Cells were detached from T175 flasks using Accutase and counted. Transfection method used was essentially that stated in the Invitrogen Lipofectamine LTX protocol (high throughput protocol using the reverse transfection method). 100 μl of cells (4.5×10^4 per 100 μl) was added to 96 well plates containing the DNA-lipofectamine mix. Plates incubated at 37° C. for 18 hours and fixed using 10% buffered formalin overnight. Plates were blocked with Odyssey blocking buffer, incubated with appropriate primary antibodies overnight followed by washing and detection with the appropriate Odyssey secondary antibody.
(§3) Plates were air dried and scanned using the Odyssey Imager using the recommended scan levels provided by the manufacturer.

| Molecule | binding across cell types |
| --- | --- |
| B2 | bind a wide spectrum of cell types |
| B3 | bind a wide spectrum of cell types |

system: OVCAR4 cells; assay: On-cell western; format: cell-based, human; details: not given
Protocol: as §1, §2, §3

| Molecule | binding to OVCAR4 cells |
| --- | --- |
| B2 | bind |
| B3 | bind |
| B4 | bind |
| B5 | bind |

system: transfected HEKs (full length B7-H4 vector); assay: On-cell western; format: cell-based; details: not given
Protocol: as §1, §2, §3

| Molecule | binding to transfected HEKs |
| --- | --- |
| B4 | good results |
| B5 | good results |

target: T4, recombinant mouse B7-H4; assay: SPR affinity of Fab; format: binding; details: not given
Protocol: The binding affinity of anti-B7-H4 antibody E02-INT Fab for recombinant human, cynomolgus monkey, and mouse B7-H4 variants were determined by surface plasmon resonance (SPR).

| Molecule | fold lower affinity for mouse than for human B7-H4 antigen |
| --- | --- |
| B6 | approximately 100 fold |

system: transfected CHOs (full length B7-H4 vector); assay: On-cell western; format: cell-based, Chinese hamster; details: not given
Protocol: as §1, §2, §3

| Molecule | binding to transfected CHOs |
| --- | --- |
| B4 | bind |
| B5 | bind |
